Consider two molecules from paper PMC6821609.

In the data set the target is T1, HNF4α (hepatocyte nuclear factor 4α) (Homo sapiens, UniProt P41235 1-474).
T1 sequence: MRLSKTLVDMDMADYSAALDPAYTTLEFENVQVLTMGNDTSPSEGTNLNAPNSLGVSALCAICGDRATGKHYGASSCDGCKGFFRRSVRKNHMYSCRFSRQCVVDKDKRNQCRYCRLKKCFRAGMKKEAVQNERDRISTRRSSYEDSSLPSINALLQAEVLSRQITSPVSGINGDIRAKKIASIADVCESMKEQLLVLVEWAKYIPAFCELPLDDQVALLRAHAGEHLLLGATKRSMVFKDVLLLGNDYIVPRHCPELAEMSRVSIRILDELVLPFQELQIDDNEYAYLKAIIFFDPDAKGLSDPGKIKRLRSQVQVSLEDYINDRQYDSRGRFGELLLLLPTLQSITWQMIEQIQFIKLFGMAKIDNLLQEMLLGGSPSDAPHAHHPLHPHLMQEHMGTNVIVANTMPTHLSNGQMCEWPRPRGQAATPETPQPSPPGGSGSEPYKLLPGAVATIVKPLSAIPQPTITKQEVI
The data set can be described thus: EMSA. For orientation: In EMSA bound probe runs differently from free probe, usually more slowly.

B1: F9-mut (cfa_F9n_mut_Biotin) (dsDNA)
DNA 1: CCAGAAGTAAATACAGCTCAACTTGTATTTGGAACAACTGGTCAACC
DNA 2: GGTTGACCAGTTGTTCCAAATACAAGTTGAGCTGTATTTACTTCTGG
For the molecule B1, the binding result was “no binding”.

B2: F9-wt (cfa_F9n_wt_Biotin) (dsDNA)
DNA 1: CAGAAGTAAATACAGCTCAACTTGTACTTTGGAACAACTGGTCAACC
DNA 2: GGTTGACCAGTTGTTCCAAAGTACAAGTTGAGCTGTATTTACTTCTG
Consider B2, for which the binding result is given as “binds”.
